T1: biotinylated Avi-UPF2-MIF4GIII (UniProt Q9HAU5 761-1054, biotin on the Avi tag (BirA))
T1 construct: UPF2, third middle-domain of eukaryotic initiation factor 4G (MIF4GIII), residues 761-1054; Avi tag added by site-directed mutagenesis to UPF2-MIF4GIII; also called immobilized UPF2-MIF4GIII; source: E. coli BL21 Rosetta2(DE3), purified (Ni-NTA, TEV, reverse IMAC, ion exchange); biotinylated with BirA, SEC
T1 sequence (looked up): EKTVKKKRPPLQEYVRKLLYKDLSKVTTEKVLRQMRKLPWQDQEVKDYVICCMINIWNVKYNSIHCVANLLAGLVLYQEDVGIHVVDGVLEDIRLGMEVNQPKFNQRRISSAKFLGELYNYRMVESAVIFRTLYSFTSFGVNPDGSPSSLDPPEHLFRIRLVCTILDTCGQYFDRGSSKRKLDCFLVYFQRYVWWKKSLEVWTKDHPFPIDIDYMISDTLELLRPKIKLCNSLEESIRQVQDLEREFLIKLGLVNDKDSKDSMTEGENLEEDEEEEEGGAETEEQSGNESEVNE


molecular target: T1, biotinylated Avi-UPF2-MIF4GIII; test: SPR; 350 RU biotinylated Avi-UPF2-MIF4GIII immobilised on an SA chip (Biacore T200); UPF3B and UPF3A constructs injected; 15°C; 300 mM NaCl, 25 mM HEPES pH 7.4, 0.25 mM TCEP, 0.05% Tween-20; global fit, 1:1 binding model; details: both partners purified

Kd [nM] | Binder
3.6 | UPF3B-41–189 (domain or fragment, human, UniProt Q9BZI7 41-189, looked up, UPF3B, human, RRM-L and N-terminal part of the middle-domain (NOPS-L), residues 41-189; also called UPF3B-1–189 (as printed once); source: E. coli BL21 Rosetta2(DE3), purified (Ni-NTA, TEV, reverse IMAC, ion exchange)) DRNKEKKEALSKVVIRRLPPTLTKEQLQEHLQPMPEHDYFEFFSNDTSLYPHMYARAYINFKNQEDIILFRDRFDGYVFLDNKGQEYPAIVEFAPFQKAAKKKTKKRDTKVGTIDDDPEYRKFLESYATDNEKMTSTPETLLEEIEAKN
7.4 | UPF3B-41–189 Y167D (domain or fragment, human, UniProt Q9BZI7 41-189, looked up, UPF3B, human, residues 41-189 with Y167D; also called Y167D (phosphomimetic); source: E. coli BL21 Rosetta2(DE3), purified (Ni-NTA, TEV, reverse IMAC, ion exchange)) DRNKEKKEALSKVVIRRLPPTLTKEQLQEHLQPMPEHDYFEFFSNDTSLYPHMYARAYINFKNQEDIILFRDRFDGYVFLDNKGQEYPAIVEFAPFQKAAKKKTKKRDTKVGTIDDDPEYRKFLESDATDNEKMTSTPETLLEEIEAKN
~130 | UPF3B-41–189 Y160A + Y167A (domain or fragment, human, UniProt Q9BZI7 41-189, looked up, UPF3B, human, residues 41-189 with Y160A and Y167A; source: E. coli BL21 Rosetta2(DE3), purified (Ni-NTA, TEV, reverse IMAC, ion exchange)) DRNKEKKEALSKVVIRRLPPTLTKEQLQEHLQPMPEHDYFEFFSNDTSLYPHMYARAYINFKNQEDIILFRDRFDGYVFLDNKGQEYPAIVEFAPFQKAAKKKTKKRDTKVGTIDDDPEARKFLESAATDNEKMTSTPETLLEEIEAKN
140 | UPF3B-41–189 Y160D (domain or fragment, human, UniProt Q9BZI7 41-189, looked up, UPF3B, human, residues 41-189 with the disease-causing (XLID) mutation Y160D; Y160D is a patient mutation and is also used as a phosphomimetic; also called UPF3B-Y160D; phosphomimetic/disease mutation; source: E. coli BL21 Rosetta2(DE3), purified (Ni-NTA, TEV, reverse IMAC, ion exchange)) DRNKEKKEALSKVVIRRLPPTLTKEQLQEHLQPMPEHDYFEFFSNDTSLYPHMYARAYINFKNQEDIILFRDRFDGYVFLDNKGQEYPAIVEFAPFQKAAKKKTKKRDTKVGTIDDDPEDRKFLESYATDNEKMTSTPETLLEEIEAKN
~130 | UPF3B-41–189 Y160D + Y167D (domain or fragment, human, UniProt Q9BZI7 41-189, looked up, UPF3B, human, residues 41-189 with Y160D and Y167D; source: E. coli BL21 Rosetta2(DE3), purified (Ni-NTA, TEV, reverse IMAC, ion exchange)) DRNKEKKEALSKVVIRRLPPTLTKEQLQEHLQPMPEHDYFEFFSNDTSLYPHMYARAYINFKNQEDIILFRDRFDGYVFLDNKGQEYPAIVEFAPFQKAAKKKTKKRDTKVGTIDDDPEDRKFLESDATDNEKMTSTPETLLEEIEAKN
3.3 | UPF3B-41–189 Y167A (domain or fragment, human, UniProt Q9BZI7 41-189, looked up, UPF3B, human, residues 41-189 with Y167A; source: E. coli BL21 Rosetta2(DE3), purified (Ni-NTA, TEV, reverse IMAC, ion exchange)) DRNKEKKEALSKVVIRRLPPTLTKEQLQEHLQPMPEHDYFEFFSNDTSLYPHMYARAYINFKNQEDIILFRDRFDGYVFLDNKGQEYPAIVEFAPFQKAAKKKTKKRDTKVGTIDDDPEYRKFLESAATDNEKMTSTPETLLEEIEAKN
90 | UPF3B-41–189 F163A (domain or fragment, human, UniProt Q9BZI7 41-189, looked up, UPF3B, human, residues 41-189 with F163A; it is named in the results; source: E. coli BL21 Rosetta2(DE3), purified (Ni-NTA, TEV, reverse IMAC, ion exchange)) DRNKEKKEALSKVVIRRLPPTLTKEQLQEHLQPMPEHDYFEFFSNDTSLYPHMYARAYINFKNQEDIILFRDRFDGYVFLDNKGQEYPAIVEFAPFQKAAKKKTKKRDTKVGTIDDDPEYRKALESYATDNEKMTSTPETLLEEIEAKN
88 | UPF3B-41–189 Y160A (domain or fragment, human, UniProt Q9BZI7 41-189, looked up, UPF3B, human, residues 41-189 with Y160A; source: E. coli BL21 Rosetta2(DE3), purified (Ni-NTA, TEV, reverse IMAC, ion exchange)) DRNKEKKEALSKVVIRRLPPTLTKEQLQEHLQPMPEHDYFEFFSNDTSLYPHMYARAYINFKNQEDIILFRDRFDGYVFLDNKGQEYPAIVEFAPFQKAAKKKTKKRDTKVGTIDDDPEARKFLESYATDNEKMTSTPETLLEEIEAKN
0.22 | UPF3A-58–206-Iso1 (domain or fragment, human, UniProt Q9H1J1 58-206, looked up, Codon-optimized for E. coli, gene-synthesized; also called UPF3A-58–208 (as printed once); source: E. coli BL21 Rosetta2(DE3), purified (Ni-NTA, TEV, reverse IMAC, ion exchange)) KPREEKRTALSKVVIRRLPPGLTKEQLEEQLRPLPAHDYFEFFAADLSLYPHLYSRAYINFRNPDDILLFRDRFDGYIFLDSKGLEYPAVVEFAPFQKIAKKKLRKKDAKTGSIEDDPEYKKFLETYCVEEEKTSANPETLLGEMEAKT
0.77 | UPF3A-58–206-RRM* A101S-A102N-L104T (domain or fragment, human, UniProt Q9H1J1 58-206, looked up, also called RRM* construct; source: E. coli BL21 Rosetta2(DE3), purified (Ni-NTA, TEV, reverse IMAC, ion exchange)) KPREEKRTALSKVVIRRLPPGLTKEQLEEQLRPLPAHDYFEFFSNDTSLYPHLYSRAYINFRNPDDILLFRDRFDGYIFLDSKGLEYPAVVEFAPFQKIAKKKLRKKDAKTGSIEDDPEYKKFLETYCVEEEKTSANPETLLGEMEAKT
2.6 | UPF3A-58–206-NOPS* C185A-V186T-E187D (domain or fragment, human, UniProt Q9H1J1 58-206, looked up, also called NOPS* construct; source: E. coli BL21 Rosetta2(DE3), purified (Ni-NTA, TEV, reverse IMAC, ion exchange)) KPREEKRTALSKVVIRRLPPGLTKEQLEEQLRPLPAHDYFEFFAADLSLYPHLYSRAYINFRNPDDILLFRDRFDGYIFLDSKGLEYPAVVEFAPFQKIAKKKLRKKDAKTGSIEDDPEYKKFLETYATDEEKTSANPETLLGEMEAKT
720 | UPF3B-41–143 (domain or fragment, human, UniProt Q9BZI7 41-143, looked up, UPF3B, human, RRM-L domain, residues 41-143; also called RRM-L alone; RRM-L only; source: E. coli BL21 Rosetta2(DE3), purified (Ni-NTA, TEV, reverse IMAC, ion exchange)) DRNKEKKEALSKVVIRRLPPTLTKEQLQEHLQPMPEHDYFEFFSNDTSLYPHMYARAYINFKNQEDIILFRDRFDGYVFLDNKGQEYPAIVEFAPFQKAAKKK

— publication PMC9177958, “Structures of nonsense-mediated mRNA decay factors UPF3B and UPF3A in complex with UPF2 reveal molecular basis for competitive binding and for neurodevelopmental disorder-causing mutation” (Nucleic Acids Research, 2022)
